The supplement of paper PMC11865577

Experiments:
Test in all cases: pull-down binding Z-score (relative to library population); higher = stronger binding
[1] = tested on: G-clamp-N3 (biotin conjugate); settings: RNA library: Library-1 (pre-miRNA loops + repeats)
Summary of the method: (§1)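 An RNA library (1 μg) carrying a Cy5 or Cy3 end label was heat-folded in phosphate/NaCl/KCl buffer, then incubated for 60 min at 25 °C with streptavidin beads loaded with 100 pmol of biotin-conjugated small molecule. The beads were washed three times, and bound RNA was released in hot SDS and hybridised to a DNA barcode microarray for 20 h at 55.5 °C. Each binding score was derived by subtracting the signal from beads without compound, averaging the barcoded replicate probes after removing the highest and lowest, and expressing the result as a Z-score relative to the library mean and standard deviation.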

[2] = tested on: TO-3-N3 (biotin conjugate); settings: RNA library: Library-2
Summary of the method: as §1

[3] = tested on: TO-3-N3-2 (biotin conjugate); settings: RNA library: Library-2
Summary of the method: as §1

TO-N3 (biotin conjugate) = settings: RNA library: Library-2
Summary of the method: as §1

[4] = tested on: TO-N3-2 (biotin conjugate); settings: RNA library: Library-2
Summary of the method: as §1

Row | Sequence | pull-down binding Z-score [1] | pull-down binding Z-score [2] | pull-down binding Z-score [3] | pull-down binding Z-score (TO-N3 (biotin conjugate)) | pull-down binding Z-score [4]
1 | UUCUGCUGUGCCUUACAGCAGUAGAA [hsa-mir-3179-4_3179-1_3179-3_3179-2] | 0.67 | 0.188 | -0.383 | 0.0349 | -0.695
2 | UUCUGUGGUUUGAAAGGAA [hsa-mir-1323] | 1.07 | 0.85 | 0.281 | 0.444 | -0.252
3 | UUCUGUUGUCAGAAAGAAGAGAA [hsa-mir-1283-1] | 0.462 | 0.146 | -0.107 | 0.0942 | -0.0355
4 | UUCUGUUGUCUGAAAGAAAAGAA [hsa-mir-1283-2] | 0.164 | -0.517 | -0.145 | -0.429 | -0.382
5 | UUCUGUUGUCUGAAAGAAACCAA [hsa-mir-518d] | -1.34 | -0.253 | -0.0975 | -0.0135 | 0.126
6 | UUCUUCCUGGAGUCGGGGAAAAG [hsa-mir-320e] | 1.31 | 0.308 | -0.0301 | 0.516 | 0.278
7 | UUCUUGUACGAGUCUGCGGCCAACCGAGAA [hsa-mir-219a-2] | -0.0874 | -0.402 | -0.366 | 0.347 | 0.974
8 | UUCUUUGAGGAUCUGGCCUAAAGAG [hsa-mir-202] | -0.443 | 1.14 | 0.362 | 1.27 | 0.811
9 | UUCUUUUUUCUGAAAUUCUUCAGGAAGGA [hsa-mir-3167] | -0.0544 | 0.368 | 0.823 | 0.0883 | -0.017
10 | UUGAACUUCAUUUCUCAUGCUCA [hsa-mir-6870] | -1.6 | -0.278 | 0.277 | -0.104 | 0.145
11 | UUGAAUCACACACACAUUUCAA [hsa-mir-4803] | -0.451 | -0.208 | -0.154 | -0.366 | -0.644
12 | UUGACCAAUCAUCUUAUUGACUAGA [hsa-mir-6502] | -1.52 | -0.403 | -0.177 | -0.471 | -0.496
13 | UUGAGAACCAG [hsa-mir-4328] | -0.606 | 1.74 | 0.215 | 1.79 | 1.04
14 | UUGAGAAGUAAUUGA [hsa-mir-548ak] | 0.0758 | 0.404 | -0.0284 | 0.251 | -0.239
15 | UUGAGCAUCUUCUGGGCAGCUGA [hsa-mir-7854] | -0.764 | -0.0613 | 0.147 | 0.397 | 0.833
16 | UUGAGGAGAGCACCACAGUGGUCAUCACACAG [hsa-mir-622] | -1.25 | 0.0413 | 0.109 | 0.871 | 1.19
17 | UUGAGGGACAUGGUUAAUGGAAUUGUCUCA [hsa-mir-342] | 0.369 | 0.338 | 0.0248 | 0.413 | 0.641
18 | UUGAUGUCAGAAUGAGGUGUACCAA [hsa-mir-4714] | 1.29 | -0.499 | 0.1 | -0.148 | -0.099
19 | UUGAUGUCAGGUUAUCCCCAAGCAUAACCUCAC [hsa-mir-4639] | -1.21 | -0.576 | -0.186 | -0.499 | -0.0627

Row | Sequence | pull-down binding Z-score [1] | pull-down binding Z-score [2] | pull-down binding Z-score [3] | pull-down binding Z-score (TO-N3 (biotin conjugate)) | pull-down binding Z-score [4]
20 | UUGAUUCAGUAAAACAUUCAA [hsa-mir-891b] | -0.189 | -0.376 | -0.0671 | -0.695 | -0.902
21 | UUGCCCAA [hsa-mir-548bb] | 0.764 | -0.0547 | -0.317 | -0.211 | -0.332
22 | UUGCUCACGGUAAGAAAAACAUGAGUAA [hsa-mir-8062] | 0.431 | 0.553 | 0.384 | 0.238 | -0.388
23 | UUGCUCUUUGGUGGAGAUA [hsa-mir-6074] | 0.646 | 0.509 | -0.00756 | 0.505 | 0.241
24 | UUGCUUAAG [hsa-mir-924] | -0.513 | 0.586 | -0.269 | 0.3 | -0.696
25 | UUGGCACAGGGAAGCGAGUCUGCCAA [hsa-mir-195] | 2.53 | 0.0632 | 0.354 | 0.504 | 1.23
26 | UUGGCCUUUAUUUUCAAUGGCAAG [hsa-mir-548b] | -0.0843 | 0.655 | -0.117 | 0.349 | 0.0975
27 | UUGGCGUAGUGAAAUAUAUAUUAAACACCAA [hsa-mir-16-2] | -0.484 | 0.128 | 0.371 | 0.0274 | 0.0267
28 | UUGGCGUUAAGAUUCUAAAAUUAUCUCCAG [hsa-mir-16-1] | -1.03 | -0.825 | -0.307 | -0.952 | -0.642
29 | UUGGGAUCCACCUUUCUCUCGA [hsa-mir-196b] | -0.507 | 0.578 | 0.21 | 0.471 | -0.031
30 | UUGGGGAGGAGCUAAGAAGCCCCUACAGGGCCCAG [hsa-mir-4257] | 1.25 | 0.138 | 0.24 | 0.56 | 1.05
31 | UUGGUCCGUAUGUGUGGUGCCACCGG [hsa-mir-1908] | -0.147 | -0.202 | -0.0706 | 0.148 | 0.948
32 | UUGGUCUUUCCCCUGUGGUCCCAA [hsa-mir-2909] | -0.499 | -0.158 | 0.152 | -0.276 | 0.207
33 | UUGGUGACAGCAGCAGUAGAGUUGCCAG [hsa-mir-6501] | 0.0434 | -0.632 | -0.445 | -0.35 | 0.272
34 | UUGGUGUGUAUUGCCUUGUCAA [hsa-mir-1179] | -0.723 | -0.972 | -0.217 | -0.924 | -0.0369
35 | UUGUAAUAGUGUAGAAUGUUGGUUAAC [hsa-mir-591] | 0.797 | -0.133 | 0.537 | 0.358 | 0.44
36 | UUGUCGUUAAAAAUAGCAA [hsa-mir-548n] | 0.889 | -0.497 | -0.149 | -0.847 | -0.863
37 | UUGUCUCCUCAAGUUGCGACGAGACAG [hsa-mir-4645] | -1.13 | -0.254 | -0.451 | -0.358 | -0.585
